Columns and labels:
[1] = biological target: platelet antigen recognized by MAb BW 2128 (human); assay: reaction with platelets; method not further stated
gP 140 = gP 140 (Homo sapiens (Human), UniProt P16109); assay: Western blot
v. Willebrand factor = v. Willebrand factor (Homo sapiens (Human), UniProt P04275); assay: Western blot
[2] = biological target: human thrombospondin (TSP) (human, UniProt P07996); assay: Western blot
fibrinogen = fibrinogen (Homo sapiens (Human), UniProt P02671-2); assay: immunoprecipitation and Western blotting
fibronectin = fibronectin (Homo sapiens (Human), UniProt P02751-8); assay: immunoprecipitation and Western blotting

B1: MAb BW 2128 (antibody, V domains shown)
VH: LQQSGAELVKPGASVTLSCKASGYTFTSYWMHWVKQRPGQGLEWIGEINPSNGRTNYNEKFKSKATLTVDKSSSTAYMHLSSLTSDDSAVYYCARGAGAGGYWGQGTTVTVSS
VL: QLTQSPAIMSASPGEKVTMTCSASSSVTYMHWCQQKSGTSPKRWIYDTSKLASGVPARFSGSGSGTSYSLTISSMEAEDAATYYCQQWNSNPLTFGAGTKLEI
[1]
  fold stronger reaction with thrombin-activated than with non-activated platelets: > 10 ×
gP 140
  binding result: no binding
v. Willebrand factor
  binding result: no binding
[2]
  binding result: no binding
fibrinogen
  binding result: no binding
fibronectin
  binding result: no binding
